Source: patent publication US11278600B2, “Human alpha-galactosidase variants” (Codexis, Inc., priority 2014, dated 2022)
Numbering of substitutions follows the chain as printed.

B1: 236 (protein)
chain: LDNGLARTPTMGWLHWERFMCNLDCQEEPDSCISEKLFMEMAELMVSEGWKDAGYEYLCIDDCWMAPQRDSEGRLQADPQRFPHGIRQLANYVHSKGLKLGIYADVGNKTCAGFPGSFGYYDIDAQTFADWGVDLLKFDGCYCDSLENLADGYKHMSLALNRTGRSIVYSCEWPLYMWPFQKPNYTEIRQYCNHWRNFADIDDSWASIKSILDWTSRNQERIVDVAGPGGWNDPDMLVIGNFGLSWNQQVTQMALWAIMAAPLFMSNDLRHISPQAKALLQDKDVIAINQDPLGKQGYQLRKGDNFEVWERPLSGLAWAVAMINRQEIGGPRSYTIAVASLGKGVACNPACFITQLLPVKRKLGFYDWDSRLRSHINPTGTVLLQLENTMQMSLKDLL
modifications: Synthetic Polypeptide sequence of Variant No. 236 of mature Human GLA
B2: 303 (protein)
chain: LDNGLARTPTMGWLHWERFMCNLDCQEEPDSCISEKLFMEMAELMVSEGWKDAGYEYLCIDDCWMAPQRDSEGRLQADPQRFPHGIRQLANYVHSKGLKLGIYADVGNKTCAGFPGSFGYYDIDAQTFADWGVDLLKFDGCYCDSLENLADGYKHMSLALNRTGRSIVYSCEWPLYMWPFQKPNYTEIRQYCNHWRNFADIDDSWASIKSILDWTSFNQERIVDVAGPGGWNDPDMLVIGNFGLSWDQQVTQMALWAIMAAPLFMSNDLRHISPQAKALLQDKDVIAINQDPLGKQGYQLRQGDNFEVWERPLSGLAWAVAIINRQEIGGPRSYTIEVASLGDGVACNPACFITQLLPVKRKLGLYNWTSRLKSHVNPTGTVLLQLENTMQMSLKDLL
modifications: Synthetic Polypeptide sequence of Variant No. 303 of mature Human GLA
B3: 307 (protein)
chain: B2 chain with R221K, D247N, Q302K, E337A, D343G, L365F, T369S
modifications: Synthetic Polypeptide sequence of Variant No. 307 of mature Human GLA
B4: 309 (protein)
chain: B2 chain with K96I, F217R, Q302K, E337P, D343G, A350G, L365F, V376I
modifications: Synthetic Polypeptide sequence of Variant No. 309 of mature Human GLA
B5: 301 (protein)
chain: B2 chain with D247N, E337A, D343K, L365F, V376I
modifications: Synthetic Polypeptide sequence of Variant No. 301 of mature Human GLA
B6: 306 (protein)
chain: B2 chain with R221K, Q302K, E337A, D343K, L365F, V376I
modifications: Synthetic Polypeptide sequence of Variant No. 306 of mature Human GLA
B7: 310 (protein)
chain: B2 chain with K96I, E337A, D343K, A350G, L365F, T369S, V376I
modifications: Synthetic Polypeptide sequence of Variant No. 310 of mature Human GLA
B8: 302 (protein)
chain: B2 chain with D247N, I322V, E337A, D343G, L365F, V376I
modifications: Synthetic Polypeptide sequence of Variant No. 302 of mature Human GLA
B9: 304 (protein)
chain: B2 chain with D247N, Q302K, L316D, E337P, D343K, A350G, K362Q, L365F, V376I
modifications: Synthetic Polypeptide sequence of Variant No. 304 of mature Human GLA
B10: 305 (protein)
chain: B1 chain with R217F, L316D, M322I, A337P, D367N, D369S, R373K
modifications: Synthetic Polypeptide sequence of Variant No. 305 of mature Human GLA
B11: 300 (protein)
chain: B2 chain with I208V, R221T, I322V, E337A, D343G, L365F, V376I
modifications: Synthetic Polypeptide sequence of Variant No. 300 of mature Human GLA
B12: 308 (protein)
chain: B1 chain with K96I, K302Q, M322I, D367N, D369S, R373K
modifications: Synthetic Polypeptide sequence of Variant No. 308 of mature Human GLA

Assay: HTP-analysis of yeast culture supernatants, no challenge (MUGal hydrolysis)
Type: biochemical
Conditions: activity of the variant/activity of Rd2BB (SEQ ID NO: 10), yeast culture supernatant
Summary of the method: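 GLA variants were expressed in INVSc1 yeast grown in SD-Ura broth with glucose at 30° C., and culture supernatants were collected after 66-84 h. Supernatant was mixed with McIlvaine buffer pH 4.8 and MUGal (2 mM stock) in 50 mM citrate, 200 mM KCl, pH 4.6, incubated at 37° C. for 30-180 minutes, then quenched with sodium carbonate.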

Molecule | Relative Activity of GLA Variants After No Challenge (NC)
B1 | +++ (+++ = >2.5 relative activity over Rd2BB (SEQ ID NO: 10))

Same assay, conditions: activity of the variant/activity of Rd3BB (SEQ ID NO: 13), yeast culture supernatant

Molecule | Relative Activity of GLA Variants After No Challenge (NC)
B2 | ++ (++ = >1.5 to 2.5 relative activity over Rd3BB (SEQ ID NO: 13))
B3 | + (+ = 0.5 to 1.5 relative activity over Rd3BB (SEQ ID NO: 13))
B4 | + (+ = 0.5 to 1.5 relative activity over Rd3BB (SEQ ID NO: 13))
B5 | + (+ = 0.5 to 1.5 relative activity over Rd3BB (SEQ ID NO: 13))
B6 | + (+ = 0.5 to 1.5 relative activity over Rd3BB (SEQ ID NO: 13))
B7 | − (− = <0.5 relative activity to Rd3BB (SEQ ID NO: 13))
B8 | + (+ = 0.5 to 1.5 relative activity over Rd3BB (SEQ ID NO: 13))
B9 | ++ (++ = >1.5 to 2.5 relative activity over Rd3BB (SEQ ID NO: 13))
B10 | + (+ = 0.5 to 1.5 relative activity over Rd3BB (SEQ ID NO: 13))
B11 | + (+ = 0.5 to 1.5 relative activity over Rd3BB (SEQ ID NO: 13))
B12 | − (− = <0.5 relative activity to Rd3BB (SEQ ID NO: 13))

Assay: HTP-analysis of supernatants pretreated with acid (MUGal hydrolysis)
Type: biochemical
Conditions: challenge at pH 4.0; activity of the variant/activity of Rd3BB (SEQ ID NO: 13); yeast culture supernatant
Summary of the method: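 Yeast INVSc1 supernatant, GLA variants; acid challenge: McIlvaine pH 3.3-4.3, 37° C., 1-3 h. Assay: MUGal in McIlvaine pH 4.8 plus citrate pH 4.3, 37° C., 30-180 min, Na2CO3 stop, Ex 355/Em 448 nm.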

Molecule | Relative Activity of GLA Variants After Challenge at pH 4.0
B2 | ++ (++ = >1.5 to 2.5 relative activity over Rd3BB (SEQ ID NO: 13))
B3 | + (+ = 0.5 to 1.5 relative activity over Rd3BB (SEQ ID NO: 13))
B4 | ++ (++ = >1.5 to 2.5 relative activity over Rd3BB (SEQ ID NO: 13))
B5 | + (+ = 0.5 to 1.5 relative activity over Rd3BB (SEQ ID NO: 13))
B6 | ++ (++ = >1.5 to 2.5 relative activity over Rd3BB (SEQ ID NO: 13))
B7 | + (+ = 0.5 to 1.5 relative activity over Rd3BB (SEQ ID NO: 13))
B8 | + (+ = 0.5 to 1.5 relative activity over Rd3BB (SEQ ID NO: 13))
B9 | ++ (++ = >1.5 to 2.5 relative activity over Rd3BB (SEQ ID NO: 13))
B10 | + (+ = 0.5 to 1.5 relative activity over Rd3BB (SEQ ID NO: 13))
B11 | ++ (++ = >1.5 to 2.5 relative activity over Rd3BB (SEQ ID NO: 13))
B12 | − (− = <0.5 relative activity to Rd3BB (SEQ ID NO: 13))

Same assay, conditions: challenge at pH 4.2; activity of the variant/activity of Rd2BB (SEQ ID NO: 10); yeast culture supernatant

Molecule | Relative Activity of GLA Variants After Challenge at pH 4.2
B1 | ++ (++ = 1.5 to 2.5 relative activity over Rd2BB (SEQ ID NO: 10))

Assay: HTP-analysis of supernatants pretreated with base (MUGal hydrolysis)
Type: biochemical
Conditions: challenge at pH 7.6; activity of the variant/activity of Rd2BB (SEQ ID NO: 10); yeast culture supernatant
Summary of the method: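 GLA variants were secreted by transformed INVSc1 yeast grown 66-84 h at 30° C. Supernatants were exposed to neutral-to-basic buffers (pH 7.0-9.7) at 37° C for 1-18 h, then assayed with MUGal in acidic citrate/McIlvaine buffer, with fluorescence read after quenching.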

Molecule | Relative Activity of GLA Variants After Challenge at pH 7.6
B1 | +++ (+++ = >2.5 relative activity over Rd2BB (SEQ ID NO: 10))

Same assay, conditions: challenge at pH 8.2; activity of the variant/activity of Rd3BB (SEQ ID NO: 13); yeast culture supernatant

Molecule | Relative Activity of GLA Variants After Challenge at pH 8.2
B2 | ++ (++ = >1.5 to 2.5 relative activity over Rd3BB (SEQ ID NO: 13))
B3 | + (+ = 0.5 to 1.5 relative activity over Rd3BB (SEQ ID NO: 13))
B4 | +++ (+++ = >2.5 relative activity over Rd3BB (SEQ ID NO: 13))
B5 | + (+ = 0.5 to 1.5 relative activity over Rd3BB (SEQ ID NO: 13))
B6 | ++ (++ = >1.5 to 2.5 relative activity over Rd3BB (SEQ ID NO: 13))
B7 | + (+ = 0.5 to 1.5 relative activity over Rd3BB (SEQ ID NO: 13))
B8 | + (+ = 0.5 to 1.5 relative activity over Rd3BB (SEQ ID NO: 13))
B9 | ++ (++ = >1.5 to 2.5 relative activity over Rd3BB (SEQ ID NO: 13))
B10 | + (+ = 0.5 to 1.5 relative activity over Rd3BB (SEQ ID NO: 13))
B11 | ++ (++ = >1.5 to 2.5 relative activity over Rd3BB (SEQ ID NO: 13))
B12 | − (− = <0.5 relative activity to Rd3BB (SEQ ID NO: 13))

Assay: HTP-analysis of supernatants pretreated with bovine serum (MUGal hydrolysis)
Type: biochemical
Conditions: activity of the variant/activity of Rd2BB (SEQ ID NO: 10), yeast culture supernatant
Summary of the method: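 Yeast INVSc1 culture supernatants containing secreted GLA variants were mixed with bovine serum (20:80) and held 1 h at 37° C. Serum-treated samples then reacted with MUGal (4 mM stock) in citrate/McIlvaine buffer (pH 4.3/4.8) for 180 min at 37° C., were quenched with sodium carbonate, and read by fluorescence (Ex 355, Em 448 nm).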

Molecule | Relative Activity of GLA Variants After Challenge with Serum
B1 | ++ (++ = 1.5 to 2.5 relative activity over Rd2BB (SEQ ID NO: 10))

Same assay, conditions: activity of the variant/activity of Rd3BB (SEQ ID NO: 13), yeast culture supernatant

Molecule | Relative Activity of GLA Variants After Challenge with Serum
B2 | + (+ = 0.5 to 1.5 relative activity over Rd3BB (SEQ ID NO: 13))
B3 | + (+ = 0.5 to 1.5 relative activity over Rd3BB (SEQ ID NO: 13))
B4 | ++ (++ = >1.5 to 2.5 relative activity over Rd3BB (SEQ ID NO: 13))
B5 | − (− = <0.5 relative activity to Rd3BB (SEQ ID NO: 13))
B6 | ++ (++ = >1.5 to 2.5 relative activity over Rd3BB (SEQ ID NO: 13))
B7 | + (+ = 0.5 to 1.5 relative activity over Rd3BB (SEQ ID NO: 13))
B8 | + (+ = 0.5 to 1.5 relative activity over Rd3BB (SEQ ID NO: 13))
B9 | ++ (++ = >1.5 to 2.5 relative activity over Rd3BB (SEQ ID NO: 13))
B10 | ++ (++ = >1.5 to 2.5 relative activity over Rd3BB (SEQ ID NO: 13))
B11 | ++ (++ = >1.5 to 2.5 relative activity over Rd3BB (SEQ ID NO: 13))
B12 | + (+ = 0.5 to 1.5 relative activity over Rd3BB (SEQ ID NO: 13))
